In publication PMC6138732 one finds stoichiometry N data, which are given here for four substances.

As a reminder, the stoichiometry N is the number of molecules, sites or subunits per partner or assembly.

Holding throughout (experiment): SEC; Protein A affinity, then S200 size exclusion to purify the hexamer fraction; analytical HPLC; hexamer counts Fc units
(SEC sorts molecules by how far they enter the pores of the column.)

For assay [1], the target named is IgG4 Fc hexamer (L309) (human).
The target of assay [2] is IgG4 Fc hexamer (L309C) (human).
Assay [3] concerns the target IgG1 Fc hexamer (L309) (human).
In assay [4] the target is IgG1 Fc hexamer (L309C) (human).

In turn, IgG4 Fc hexamer (L309) showed a stoichiometry N in assay [1] of 6. For the substance IgG4 Fc hexamer (L309C), the stoichiometry N in assay [2] is 6.

For the substance IgG1 Fc hexamer (L309), in assay [3], the stoichiometry N is 6.

Take IgG1 Fc hexamer (L309C): the stoichiometry N in assay [4] amounted to 6.
